The source of these data is publication PMC12990809.

Holding throughout (assay): pulldown
The target of data set [1] is T1, qkr58E-2 (Drosophila melanogaster) (UniProt Q5BID2).
T1 sequence: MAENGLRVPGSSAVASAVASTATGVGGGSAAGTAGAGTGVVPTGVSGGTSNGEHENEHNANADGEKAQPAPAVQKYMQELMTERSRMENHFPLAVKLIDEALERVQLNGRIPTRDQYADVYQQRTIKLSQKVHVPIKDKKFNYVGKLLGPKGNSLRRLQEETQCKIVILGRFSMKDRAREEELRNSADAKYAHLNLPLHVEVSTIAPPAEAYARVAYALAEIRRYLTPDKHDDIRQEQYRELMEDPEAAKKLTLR
The note with it: 20 nM protein, 1.5 uM RNA pool; 20 mM HEPES pH 7.8, 70 mM KCl, 10 mM NaCl, 10% glycerol, 2 mM DTT, 0.1 ug/uL BSA; 30 min, 4 C.

Data set [2] addresses T2, aret (Drosophila melanogaster) (UniProt E1JHG6).
T2 sequence: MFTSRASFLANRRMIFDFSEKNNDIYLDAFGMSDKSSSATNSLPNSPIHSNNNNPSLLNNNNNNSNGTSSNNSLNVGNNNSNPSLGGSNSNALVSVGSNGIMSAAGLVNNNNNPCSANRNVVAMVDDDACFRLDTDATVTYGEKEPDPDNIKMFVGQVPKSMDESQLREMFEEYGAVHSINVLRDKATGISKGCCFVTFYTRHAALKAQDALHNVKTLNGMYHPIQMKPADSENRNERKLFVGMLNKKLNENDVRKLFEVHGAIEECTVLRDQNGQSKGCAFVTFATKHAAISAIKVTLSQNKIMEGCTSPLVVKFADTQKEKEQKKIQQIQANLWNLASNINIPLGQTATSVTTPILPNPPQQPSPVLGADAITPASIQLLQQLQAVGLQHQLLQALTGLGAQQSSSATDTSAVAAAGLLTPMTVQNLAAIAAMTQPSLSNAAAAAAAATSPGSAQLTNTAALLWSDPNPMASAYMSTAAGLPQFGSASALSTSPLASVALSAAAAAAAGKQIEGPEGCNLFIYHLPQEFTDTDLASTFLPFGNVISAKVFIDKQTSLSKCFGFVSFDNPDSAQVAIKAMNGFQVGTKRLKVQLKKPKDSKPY
The note with it: 20 nM protein, 1.5 uM RNA pool; 20 mM HEPES pH 7.8, 70 mM KCl, 10 mM NaCl, 10% glycerol, 2 mM DTT, 0.1 ug/uL BSA; 30 min, 4 C (protocol of this paper; not …); cited from earlier work.

For data set [3], the target named is T3, hnrnpa0 (Xenopus tropicalis) (UniProt A0A8J0QIP1).
T3 sequence: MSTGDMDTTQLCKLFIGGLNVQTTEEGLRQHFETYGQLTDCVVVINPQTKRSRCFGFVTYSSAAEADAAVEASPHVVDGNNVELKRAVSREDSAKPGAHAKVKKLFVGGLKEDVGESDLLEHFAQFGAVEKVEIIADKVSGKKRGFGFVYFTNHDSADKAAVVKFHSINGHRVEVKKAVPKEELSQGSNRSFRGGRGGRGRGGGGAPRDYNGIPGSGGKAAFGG
The note with it: 20 nM protein, 1.5 uM RNA pool; 20 mM HEPES pH 7.8, 70 mM KCl, 10 mM NaCl, 10% glycerol, 2 mM DTT, 0.1 ug/uL BSA; 30 min, 4 C.

Data set [4] concerns the target T4, LmjF.27.2100 (Leishmania major) (UniProt E9ADJ0).
T4 sequence: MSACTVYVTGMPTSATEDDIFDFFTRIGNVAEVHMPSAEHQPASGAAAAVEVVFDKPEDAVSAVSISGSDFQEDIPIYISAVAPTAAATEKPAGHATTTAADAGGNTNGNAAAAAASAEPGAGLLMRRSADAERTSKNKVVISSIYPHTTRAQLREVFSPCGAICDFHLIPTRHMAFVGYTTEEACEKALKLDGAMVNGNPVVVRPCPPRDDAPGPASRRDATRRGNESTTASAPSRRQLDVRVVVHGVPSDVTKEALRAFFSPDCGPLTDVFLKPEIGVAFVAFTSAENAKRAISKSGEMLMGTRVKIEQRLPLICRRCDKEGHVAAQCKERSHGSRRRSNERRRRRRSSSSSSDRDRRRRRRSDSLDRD
To be noted: 20 nM protein, 1.5 uM RNA pool; 20 mM HEPES pH 7.8, 70 mM KCl, 10 mM NaCl, 10% glycerol, 2 mM DTT, 0.1 ug/uL BSA; 30 min, 4 C.

For data set [5], the target named is T5, rbm14 (Xenopus tropicalis) (UniProt A0A8J0QJ94).
T5 sequence: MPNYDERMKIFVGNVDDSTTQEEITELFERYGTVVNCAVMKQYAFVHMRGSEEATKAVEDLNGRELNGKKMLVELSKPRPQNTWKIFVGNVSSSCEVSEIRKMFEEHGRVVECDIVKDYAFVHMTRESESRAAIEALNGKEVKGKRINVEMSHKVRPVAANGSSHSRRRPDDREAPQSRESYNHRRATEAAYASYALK
To be noted: 20 nM protein, 1.5 uM RNA pool; 20 mM HEPES pH 7.8, 70 mM KCl, 10 mM NaCl, 10% glycerol, 2 mM DTT, 0.1 ug/uL BSA; 30 min, 4 C.

Data set [6] concerns the target T6, LmjF.18.0190 (Leishmania major) (UniProt Q4QE23).
T6 sequence: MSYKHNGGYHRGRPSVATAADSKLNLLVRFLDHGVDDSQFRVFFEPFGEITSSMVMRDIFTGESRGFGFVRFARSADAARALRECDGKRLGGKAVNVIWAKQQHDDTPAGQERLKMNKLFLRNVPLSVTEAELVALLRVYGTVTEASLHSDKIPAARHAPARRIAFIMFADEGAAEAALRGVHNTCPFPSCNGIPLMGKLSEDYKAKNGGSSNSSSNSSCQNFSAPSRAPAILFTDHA
The note with it: 20 nM protein, 1.5 uM RNA pool; 20 mM HEPES pH 7.8, 70 mM KCl, 10 mM NaCl, 10% glycerol, 2 mM DTT, 0.1 ug/uL BSA; 30 min, 4 C.

The target of data set [7] is T7, TVAG_371220 (Trichomonas vaginalis) (UniProt A2FYE4).
T7 sequence: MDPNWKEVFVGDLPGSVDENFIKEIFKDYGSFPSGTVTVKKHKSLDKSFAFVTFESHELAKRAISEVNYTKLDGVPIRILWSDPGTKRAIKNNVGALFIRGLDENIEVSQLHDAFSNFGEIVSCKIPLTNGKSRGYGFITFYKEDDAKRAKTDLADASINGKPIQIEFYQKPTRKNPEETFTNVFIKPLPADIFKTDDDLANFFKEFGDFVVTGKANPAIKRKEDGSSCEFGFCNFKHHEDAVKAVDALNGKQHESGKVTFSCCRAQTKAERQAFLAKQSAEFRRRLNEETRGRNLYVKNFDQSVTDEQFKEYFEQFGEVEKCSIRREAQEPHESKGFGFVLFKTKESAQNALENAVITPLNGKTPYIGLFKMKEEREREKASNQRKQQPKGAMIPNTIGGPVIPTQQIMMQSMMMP
The note with it: 20 nM protein, 1.5 uM RNA pool; 20 mM HEPES pH 7.8, 70 mM KCl, 10 mM NaCl, 10% glycerol, 2 mM DTT, 0.1 ug/uL BSA; 30 min, 4 C.

For data set [8], the target named is T8, NCU09742 (Neurospora crassa) (UniProt Q7SEI3).
T8 sequence: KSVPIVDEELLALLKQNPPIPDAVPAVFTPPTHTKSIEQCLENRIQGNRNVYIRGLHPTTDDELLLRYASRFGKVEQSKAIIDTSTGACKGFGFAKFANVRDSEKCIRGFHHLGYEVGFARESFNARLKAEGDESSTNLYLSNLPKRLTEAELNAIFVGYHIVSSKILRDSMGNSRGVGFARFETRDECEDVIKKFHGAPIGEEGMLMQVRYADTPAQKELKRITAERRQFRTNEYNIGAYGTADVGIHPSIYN
The note with it: 20 nM protein, 1.5 uM RNA pool; 20 mM HEPES pH 7.8, 70 mM KCl, 10 mM NaCl, 10% glycerol, 2 mM DTT, 0.1 ug/uL BSA; 30 min, 4 C.

In turn, AUAAUA [RNAcompete motif RNCMPT00637] yielded a binding signal (z-score (mean of top ten 7-mers)) in data set [1] of 13.

As to UNUGUGU [RNAcompete motif RNCMPT00003], the binding signal (z-score (mean of top ten 7-mers)) in data set [2] was 21.4.

As to AUUAGGA [RNAcompete motif RNCMPT00684], in data set [3], the binding signal (z-score (mean of top ten 7-mers)) was found to be 8.79. Take GGAGGA [RNAcompete motif RNCMPT00667]: the binding signal (z-score (mean of top ten 7-mers)) in data set [4] came to 6.1. Turning to CGACGA [RNAcompete motif RNCMPT00514], in data set [5], the binding signal (z-score (mean of top ten 7-mers)) is 10.1. Consider CUCAUUU [RNAcompete motif RNCMPT00687], for which the binding signal (z-score (mean of top ten 7-mers)) in data set [6] was determined as 20.6.

Substance AAAAAAG [RNAcompete motif RNCMPT00623] registered a binding signal (z-score (mean of top ten 7-mers)) in data set [7] of 11.9. In data set [8], AUUAUUA [RNAcompete motif RNCMPT00676] had a binding signal (z-score (mean of top ten 7-mers)) of 9.27.
